The values that follow come from patent publication US20220288203A1.

Test [1] deals with Human podocalyxin as endogenously expressed and displayed by tumor cell lines (A172, SKOV3, MIA PaCa-2, MDA-MB-231) (human) (UniProt O00592). In words: flow cytometry titration on A172 cells, four-parameter fit (Prism). In general terms: A flow cytometer gives signals particle by particle.
For test [2] the target is unchanged. As to the kind of experiment: KinExA 3200; titrated A172 cells with constant antibody, 16 h equilibrium. For orientation: In KinExA the mixture passes briefly over coated beads that capture the unbound partner.
For test [3] the target is unchanged. In words: KinExA 3200; titrated A172 cells with constant antibody, 16 h equilibrium, free antibody measured.

The term Kd denotes the equilibrium constant for the complex coming apart.

Sequence of Human podocalyxin as endogenously expressed and displayed by tumor cell lines (A172, SKOV3, MIA PaCa-2, MDA-MB-231) (human) (O00592 23-558): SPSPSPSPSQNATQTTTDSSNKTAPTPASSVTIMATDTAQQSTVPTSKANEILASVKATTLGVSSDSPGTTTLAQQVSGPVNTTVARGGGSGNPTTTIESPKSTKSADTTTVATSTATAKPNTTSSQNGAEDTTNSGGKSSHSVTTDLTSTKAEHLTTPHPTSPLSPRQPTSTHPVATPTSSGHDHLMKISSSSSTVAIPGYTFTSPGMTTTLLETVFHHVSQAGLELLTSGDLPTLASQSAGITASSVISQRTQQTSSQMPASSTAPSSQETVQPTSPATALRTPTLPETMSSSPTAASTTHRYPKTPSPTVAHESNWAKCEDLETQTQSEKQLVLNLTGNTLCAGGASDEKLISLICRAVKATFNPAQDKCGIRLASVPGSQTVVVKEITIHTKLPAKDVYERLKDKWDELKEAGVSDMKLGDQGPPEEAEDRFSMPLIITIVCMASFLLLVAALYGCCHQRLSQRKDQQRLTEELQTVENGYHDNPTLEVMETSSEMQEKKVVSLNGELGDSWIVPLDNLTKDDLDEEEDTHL

B1: Humanized Podo447 (humanized_podo447VH_hIgG1C + humanized_podo447VL6_hIgkC) (antibody, V domains shown)
VH: EVQLVESGGGLVQPGRSLRLSCTASGFSLSGYQMNWVRQAPGKGLEWVGYIWSDGGTDYTASVKGRFTISRDGSKSIAYLQMNSLKTEDTAVYYCAREGYWLGAFDPWGQGTSVTVSA
VL: AAQLTQSPSPLSASVGDRVTITCQSSQSVHHKNDLAWYQQKPGKAPKLLIYYTSTLASGVPSRFSGSGSGTDFTLTISSLQPEDFATYYCAGVYEGSSDNRAFGGGTKVEIKR
In test [1], B1 showed a Bottom (best-fit) of 1940, a LogIC50 of 2.09, a Span (best-fit) of 236000 and a Top (best-fit) of 238000. In test [2], this molecule registered an Epitopes/Cell (epitopes/cell) of 233000, a Kd High of 45.9 pM and a Kd Low of 4.59 pM. This molecule gave a Kd in test [3] of 0.0144 nM.

B2: Podo447, recombinant rabbit/human chimeric anti-podocalyxin antibody (rabbit V genes, human IgG1 and kappa constant regions) (antibody, V domains shown)
VH: QSLEESGGRLVTPGTPLTLTCTASGFSLSGYQMNWVRQAPGKGLEWIGYIWSDGGTDYASWAKGRFTISKTSSTTVDLKMTSLTTEDTATYFCAREGYWLGAFDPWGPGTLVTVSS
VL: AAVLTQTPSPVSAAVGATVSVSCQSSQSVHHKNDLAWFQQKPGQPPKLLIYYTSTLASGVPSRFKGSGSGTQFTLTISDLECDDAATYYCAGVYEGSSDNRAFGGGTEVVVKR
As to B2, in test [1], the Bottom (best-fit) turned out to be 8630, the LogIC50 was determined as 2.28, the Span (best-fit) stood at 371000 and the Top (best-fit) is 380000. For the same molecule, in test [2], the Epitopes/Cell (epitopes/cell) was 420000, the Kd High is 24.9 pM and the Kd Low was found to be 2.3 pM. The same molecule showed a Kd in test [3] of 0.00757 nM.
